Biological target: SAV1 (UniProt Q9H4B6)
Assay: biotin-peptide pull-down from cell lysate
Conditions: reference: unphosphorylated Akt1 peptide; sites Y26

- binding against the reference: weaker
Substance: Akt1 PH domain peptide (from UniProt P31749) pY26 Akt1 peptide
